Results as given in the supplement of paper PMC9876800.

Tested on: peptide library, one residue held at a place counted from the S/T acceptor
Test: relative phosphorylation of the sub-library (ratio to the mean residue at this position); human; higher = residue favoured
Outline: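 Each biotinylated degenerate peptide sub-library fixed one residue at one position around a central Ser/Thr and was incubated with a purified recombinant kinase, a human or orthologue construct, in 384-well plates. The 90 min reactions, under kinase-specific conditions, contained 50 μM peptide and 50 μM ATP spiked with γ-32P-ATP. Phosphorylation was read by phosphorimaging spots on streptavidin membranes and quantifying them by densitometry. Relative sub-library phosphorylation expresses each value as a ratio to the mean residue at that position.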

CLK3, construct: Full length, sequence (P49761 whole entry, looked up): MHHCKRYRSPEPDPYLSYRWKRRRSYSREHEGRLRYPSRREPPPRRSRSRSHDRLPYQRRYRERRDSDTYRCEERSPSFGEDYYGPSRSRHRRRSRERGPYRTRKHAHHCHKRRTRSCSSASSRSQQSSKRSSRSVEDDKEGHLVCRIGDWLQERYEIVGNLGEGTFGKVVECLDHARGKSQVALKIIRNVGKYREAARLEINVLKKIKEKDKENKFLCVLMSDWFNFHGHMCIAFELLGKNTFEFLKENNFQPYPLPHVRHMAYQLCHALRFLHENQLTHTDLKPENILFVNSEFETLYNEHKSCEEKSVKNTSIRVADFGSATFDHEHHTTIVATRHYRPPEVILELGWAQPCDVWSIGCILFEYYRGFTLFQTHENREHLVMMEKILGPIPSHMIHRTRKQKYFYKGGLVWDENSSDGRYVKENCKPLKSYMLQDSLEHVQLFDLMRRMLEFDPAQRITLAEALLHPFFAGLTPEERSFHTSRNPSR
MAP3K10, construct: aa1-449, sequence (Q02779 1-449, looked up): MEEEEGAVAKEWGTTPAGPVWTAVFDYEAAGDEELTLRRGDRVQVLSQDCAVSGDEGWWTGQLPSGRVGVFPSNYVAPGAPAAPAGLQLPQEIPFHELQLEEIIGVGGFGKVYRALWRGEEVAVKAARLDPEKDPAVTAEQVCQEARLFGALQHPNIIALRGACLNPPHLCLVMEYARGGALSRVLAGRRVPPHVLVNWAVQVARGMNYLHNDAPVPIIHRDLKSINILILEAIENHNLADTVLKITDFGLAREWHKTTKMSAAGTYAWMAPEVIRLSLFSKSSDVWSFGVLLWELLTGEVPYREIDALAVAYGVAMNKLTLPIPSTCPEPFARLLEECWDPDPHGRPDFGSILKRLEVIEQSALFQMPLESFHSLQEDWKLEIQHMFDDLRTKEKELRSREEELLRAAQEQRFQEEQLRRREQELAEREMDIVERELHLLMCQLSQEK
CAMK1, construct: Full length, sequence (Q14012 whole entry, looked up): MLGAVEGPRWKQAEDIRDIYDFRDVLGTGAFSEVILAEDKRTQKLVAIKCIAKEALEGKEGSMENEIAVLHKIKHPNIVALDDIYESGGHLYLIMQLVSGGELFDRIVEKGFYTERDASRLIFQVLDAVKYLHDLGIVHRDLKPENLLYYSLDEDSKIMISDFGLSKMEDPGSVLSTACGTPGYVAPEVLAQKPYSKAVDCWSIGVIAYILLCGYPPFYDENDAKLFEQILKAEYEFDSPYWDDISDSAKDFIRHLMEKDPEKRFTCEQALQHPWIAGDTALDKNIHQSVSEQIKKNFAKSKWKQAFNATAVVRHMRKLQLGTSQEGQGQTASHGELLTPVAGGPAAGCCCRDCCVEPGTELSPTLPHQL
BRSK2, construct: Full length, sequence (Q8IWQ3 whole entry, looked up): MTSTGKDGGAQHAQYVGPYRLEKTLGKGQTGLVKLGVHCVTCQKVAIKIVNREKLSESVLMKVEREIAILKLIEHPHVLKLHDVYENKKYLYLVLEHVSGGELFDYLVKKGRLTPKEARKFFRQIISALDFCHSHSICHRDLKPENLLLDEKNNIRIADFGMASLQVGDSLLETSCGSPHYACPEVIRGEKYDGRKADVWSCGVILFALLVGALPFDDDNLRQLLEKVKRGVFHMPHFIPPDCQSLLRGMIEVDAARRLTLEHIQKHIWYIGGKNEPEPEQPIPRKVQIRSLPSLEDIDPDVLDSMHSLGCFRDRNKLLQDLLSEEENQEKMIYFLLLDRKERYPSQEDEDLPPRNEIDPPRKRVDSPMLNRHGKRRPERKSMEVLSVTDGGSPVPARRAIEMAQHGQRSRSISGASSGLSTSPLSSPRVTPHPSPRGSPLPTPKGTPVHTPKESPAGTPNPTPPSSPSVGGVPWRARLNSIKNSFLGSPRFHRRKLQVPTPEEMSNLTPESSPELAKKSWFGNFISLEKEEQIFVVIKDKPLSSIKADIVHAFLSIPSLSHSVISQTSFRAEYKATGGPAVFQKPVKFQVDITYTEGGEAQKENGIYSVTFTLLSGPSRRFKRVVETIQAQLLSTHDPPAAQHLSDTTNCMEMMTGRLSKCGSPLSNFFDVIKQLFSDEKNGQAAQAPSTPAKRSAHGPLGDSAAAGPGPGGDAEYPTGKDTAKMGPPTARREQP

CLK3, construct: Full length (from UniProt P49761)
relative phosphorylation
Details | at +1 | at +2 | at +3 | at +4 | at -1 | at -2 | at -3 | at -4 | at -5
A fixed | 0.914 | 1.22 | 0.84 | 1.18 | 0.969 | 1.52 | 0.79 | 0.812 | 1.06
D fixed | 0.555 | 1.69 | 0.683 | 1.62 | 0.872 | 1.26 | 1.43 | 1.4 | 1.87
E fixed | 1.27 | 1.91 | 0.622 | 1.34 | 0.915 | 1.8 | 1.19 | 1.38 | 1.04
F fixed | 0.282 | 0.536 | 0.348 | 0.694 | 0.306 | 0.342 | 0.339 | 0.516 | 0.773
G fixed | 0.984 | 0.987 | 0.917 | 0.938 | 1.03 | 1.35 | 0.853 | 1.1 | 0.928
H fixed | 0.735 | 0.971 | 1.07 | 0.869 | 0.799 | 0.732 | 0.607 | 0.885 | 0.899
I fixed | 0.382 | 0.381 | 0.47 | 0.681 | 0.203 | 0.33 | 0.282 | 0.417 | 0.523
K fixed | 2.02 | 1.6 | 3.25 | 2.08 | 2.62 | 1.33 | 2.38 | 1.38 | 1.53
L fixed | 0.478 | 0.506 | 0.438 | 0.748 | 0.376 | 0.307 | 0.31 | 0.492 | 0.599
M fixed | 0.659 | 0.574 | 0.424 | 0.724 | 0.405 | 0.39 | 0.359 | 0.613 | 0.492
N fixed | 1.06 | 1.03 | 1.1 | 0.885 | 1.55 | 0.853 | 0.779 | 0.961 | 0.846
P fixed | 4.92 | 1.69 | 1.81 | 0.963 | 2.15 | 1.9 | 1.76 | 1.87 | 0.949
Q fixed | 0.983 | 0.898 | 0.707 | 1.01 | 1.62 | 0.904 | 0.852 | 0.996 | 0.973
R fixed | 0.409 | 1.35 | 2.93 | 1.1 | 2.1 | 2.72 | 3.78 | 2.05 | 2.05
V fixed | 0.619 | 0.52 | 0.457 | 0.796 | 0.367 | 0.432 | 0.436 | 0.535 | 0.735
W fixed | 0.368 | 0.628 | 0.483 | 0.732 | 0.37 | 0.39 | 0.457 | 0.879 | 1.07
Y fixed | 0.368 | 0.517 | 0.439 | 0.649 | 0.348 | 0.435 | 0.403 | 0.704 | 0.674
pThr fixed | 0.887 | 2.44 | 0.951 | 2.16 | 0.555 | 0.817 | 1.05 | 1.27 | 1.12
pTyr fixed | 1.23 | 0.956 | 0.877 | 1.3 | 1.1 | 0.87 | 0.997 | 1.05 | 0.98

MAP3K10, construct: aa1-449 (from UniProt Q02779)
relative phosphorylation
Details | at +1 | at +2 | at +3 | at +4 | at -1 | at -2 | at -3 | at -4 | at -5
A fixed | 0.988 | 0.921 | 1.06 | 1.24 | 0.881 | 0.969 | 1.12 | 1.23 | 1.48
D fixed | 0.28 | 0.398 | 0.506 | 0.72 | 0.775 | 0.594 | 0.888 | 1.11 | 1.11
E fixed | 0.404 | 0.392 | 0.439 | 0.573 | 0.65 | 0.584 | 0.827 | 0.909 | 0.764
F fixed | 1.53 | 0.602 | 1.19 | 0.779 | 1.05 | 1.44 | 0.935 | 0.693 | 0.878
G fixed | 0.999 | 0.749 | 1.42 | 1.43 | 0.603 | 0.911 | 1.28 | 1.43 | 1.39
H fixed | 1.65 | 2.11 | 1.34 | 1.07 | 1.39 | 1.2 | 1.19 | 1.11 | 1.17
I fixed | 0.774 | 0.445 | 0.773 | 0.705 | 0.65 | 0.505 | 0.484 | 0.541 | 0.596
K fixed | 1.12 | 1.84 | 1.01 | 1.44 | 1.22 | 0.514 | 0.964 | 1.08 | 0.953
L fixed | 0.764 | 0.561 | 0.897 | 0.75 | 0.973 | 0.789 | 0.731 | 0.698 | 0.712
M fixed | 1.33 | 0.634 | 0.985 | 0.746 | 1.14 | 1.3 | 0.821 | 0.879 | 0.725
N fixed | 0.977 | 1.07 | 1.06 | 1.06 | 1.23 | 1.08 | 1.54 | 1.17 | 1.01
P fixed | 0.32 | 0.67 | 1.06 | 1.7 | 0.95 | 1.87 | 1.51 | 1.56 | 1.28
Q fixed | 1.54 | 1.24 | 1.06 | 1.35 | 1.37 | 1.12 | 1.26 | 1.05 | 0.951
R fixed | 1.35 | 2.26 | 0.966 | 0.912 | 1.09 | 0.569 | 0.762 | 0.957 | 1
V fixed | 0.942 | 0.635 | 0.791 | 0.777 | 0.806 | 0.589 | 0.665 | 0.636 | 0.846
W fixed | 1.05 | 1.09 | 1.28 | 0.923 | 1.07 | 1.5 | 0.997 | 1.09 | 1.24
Y fixed | 0.978 | 1.39 | 1.16 | 0.832 | 1.15 | 1.47 | 1.02 | 0.843 | 0.884
pThr fixed | 0.578 | 0.503 | 0.623 | 0.634 | 0.63 | 0.706 | 0.849 | 0.914 | 0.992
pTyr fixed | 0.455 | 0.311 | 0.519 | 0.452 | 0.862 | 0.525 | 0.707 | 0.616 | 0.73

BRSK2, construct: Full length (from UniProt Q8IWQ3)
relative phosphorylation
Details | at +1 | at +2 | at +3 | at +4 | at -1 | at -2 | at -3 | at -4 | at -5
A fixed | 0.653 | 0.569 | 0.726 | 0.598 | 1.07 | 1.91 | 0.829 | 1.14 | 1.01
D fixed | 0.341 | 0.505 | 1.34 | 0.41 | 0.539 | 0.816 | 0.264 | 0.367 | 0.357
E fixed | 0.396 | 0.471 | 0.574 | 0.299 | 0.433 | 0.659 | 0.257 | 0.435 | 0.355
F fixed | 2.02 | 1.69 | 1.95 | 1.3 | 0.867 | 1.19 | 0.728 | 0.686 | 1.2
G fixed | 0.53 | 0.464 | 0.85 | 0.562 | 1.3 | 1.35 | 0.703 | 1.16 | 0.964
H fixed | 0.802 | 1.49 | 1.25 | 0.718 | 1.18 | 1.05 | 1.31 | 1.3 | 0.842
I fixed | 1.03 | 0.679 | 0.518 | 3.23 | 0.674 | 0.591 | 0.389 | 0.522 | 1.08
K fixed | 0.624 | 0.337 | 0.775 | 0.727 | 1.53 | 1.04 | 2.71 | 2.04 | 1.35
L fixed | 1.17 | 0.739 | 0.609 | 3.06 | 0.956 | 0.564 | 0.427 | 0.58 | 1.27
M fixed | 3.01 | 0.951 | 0.675 | 1.47 | 1.14 | 0.664 | 0.589 | 0.881 | 1.33
N fixed | 0.925 | 1.03 | 2.68 | 0.671 | 1.02 | 0.843 | 0.681 | 0.752 | 0.599
P fixed | 0.203 | 0.489 | 0.403 | 0.654 | 1.55 | 0.833 | 0.687 | 1.58 | 0.954
Q fixed | 1.19 | 1.01 | 1.07 | 0.661 | 1.12 | 0.701 | 0.861 | 0.913 | 0.817
R fixed | 1.07 | 0.416 | 0.916 | 0.599 | 1.2 | 1.35 | 4.56 | 2.14 | 1.71
V fixed | 0.914 | 0.567 | 0.499 | 0.876 | 0.781 | 0.978 | 0.405 | 0.678 | 0.801
W fixed | 0.924 | 1.98 | 1.09 | 0.607 | 0.642 | 1.34 | 0.886 | 0.976 | 1.12
Y fixed | 1.2 | 3.62 | 1.08 | 0.559 | 1.01 | 1.13 | 0.711 | 0.844 | 1.24
pThr fixed | 0.909 | 0.54 | 0.378 | 0.452 | 0.332 | 0.451 | 0.401 | 0.624 | 0.6
pTyr fixed | 0.419 | 0.504 | 0.571 | 0.287 | 0.899 | 0.366 | 0.376 | 0.533 | 0.594

CAMK1, construct: Full length (from UniProt Q14012)
relative phosphorylation
Details | at +1 | at +2 | at +3 | at +4 | at -1 | at -2 | at -3 | at -4 | at -5
A fixed | 0.669 | 0.817 | 0.709 | 0.598 | 0.804 | 1.02 | 0.635 | 0.826 | 0.346
D fixed | 0.448 | 0.609 | 1.01 | 0.758 | 0.925 | 0.25 | 0.157 | 0.285 | 0.205
E fixed | 0.497 | 0.508 | 0.699 | 0.628 | 0.483 | 0.322 | 0.178 | 0.542 | 0.189
F fixed | 2.41 | 1.16 | 1.44 | 1.44 | 0.637 | 0.398 | 0.201 | 0.833 | 1.56
G fixed | 0.623 | 0.554 | 0.911 | 0.897 | 0.773 | 0.607 | 0.218 | 0.614 | 0.402
H fixed | 0.834 | 1.26 | 1.23 | 0.911 | 1.17 | 0.757 | 0.603 | 0.942 | 0.527
I fixed | 0.715 | 1.06 | 0.751 | 1.42 | 0.49 | 0.413 | 0.165 | 1.03 | 1.49
K fixed | 1.35 | 1.13 | 0.881 | 0.821 | 1.87 | 2.03 | 2.38 | 2.62 | 0.663
L fixed | 0.767 | 1.16 | 0.962 | 1.82 | 0.965 | 0.54 | 0.188 | 1.12 | 2.97
M fixed | 1.21 | 0.986 | 0.938 | 1.37 | 1.01 | 1.33 | 0.252 | 1.13 | 1.39
N fixed | 1.13 | 1.18 | 1.64 | 1.07 | 2.03 | 0.856 | 0.369 | 0.802 | 0.394
P fixed | 0.263 | 0.598 | 0.75 | 1.21 | 1.31 | 0.245 | 0.274 | 0.575 | 1.54
Q fixed | 1.44 | 1 | 1.14 | 1.01 | 1.23 | 2.24 | 0.784 | 1.11 | 0.976
R fixed | 1.96 | 1.42 | 0.961 | 0.679 | 1.59 | 4.18 | 9.87 | 2.11 | 1.8
V fixed | 0.758 | 0.857 | 0.663 | 0.732 | 0.504 | 0.469 | 0.177 | 1.01 | 0.676
W fixed | 0.932 | 1.36 | 1.38 | 0.911 | 0.45 | 0.842 | 0.325 | 0.633 | 0.924
Y fixed | 0.99 | 1.34 | 0.935 | 0.716 | 0.753 | 0.488 | 0.227 | 0.827 | 0.946
pThr fixed | 0.649 | 0.596 | 0.601 | 0.682 | 0.288 | 0.264 | 0.201 | 0.389 | 0.248
pTyr fixed | 0.654 | 1.94 | 0.848 | 0.605 | 0.604 | 0.361 | 0.473 | 0.445 | 0.461
